Laboratory results as given in patent US20160185850A1 (ESBATECH AN ALCON BIOMEDICAL RESEARCH UNIT, published 2016).
Numbering of substitutions follows the chain as printed. Names may count otherwise.

B1: TB-A H_F68L (scFv)
scFv: DIVMTQSPSSLSASVGDRVTLTCTASQSVSNDVVWYQQRPGKAPKLLIYSAFNRYTGVPSRFSGRGYGTDFTLTISSLQPEDVAVYYCQQDYNSPRTFGQGTKLEVKRGGGGSGGGGSGGGGSGGGGSQVQLVQSGAEVKKPGASVKVSCTASGYTFTHYGMNWVRQAPGKGLEWMGWINTYTGEPTYADKFKDRLTFSLETSASTVYMELTSLTSDDTAVYYCARERGDAMDYWGQGTLVTVSS
B2: TB-A H_F68A (scFv)
scFv: B1 scFv with L196A
B3: TB-A H_F68V/F70L (scFv)
scFv: B1 scFv with L196V, F198L
B4: TB-A H_F70L (scFv)
scFv: B1 scFv with L196F, F198L
B5: TB-A H_M48L/F68I (scFv)
scFv: B1 scFv with M176L, L196I
B6: TB-A Linker_G2R H_F68L (scFv)
scFv: B1 scFv with G110R
B7: TB-A H_K43R/F68I (scFv)
scFv: B1 scFv with K171R, L196I
B8: TB-A H_F70L/L72R (scFv)
scFv: B1 scFv with L196F, F198L, L200R
notes: also called TB-A H70/72
B9: TB-B L46 (scFv)
scFv: DIVLTQSPSSLSASVGDRVTLTCTASQSVSNDVVWYQQRPGKAPKLLIYSAFNRYTGVPSRFSGSGSGTEFTLTISSLQPEDVAVYYCQQDYNSPRTFGQGTKLEVKRGGGGSGGGGSGGGGSGGGGSQVQLVQSGAEVKKPGASVKVSCTASGYSFTHYGMNWVRQAPGQGLEWMGWINTYTGEPTYADKFKDRVTLTRDTSIGTVYMELTSLTSDDTAVYYCARERGDAMDYWGQGTLVTVSS
notes: Differs from TB-B only at position 46 of VL (R to L); also called TB-B R46L

Experiments:
recombinant human TNFα [1] = target: T1, recombinant human TNFα (human, UniProt P01375 77-233); experiment: cell-based or functional assay
recombinant human TNFα [2] = target: T1, recombinant human TNFα; experiment: ELISA on recombinant human TNFα
recombinant human TNFα [3] = target: T1, recombinant human TNFα; experiment: ELISA on recombinant human TNFα (FIG. 4A)

T1 sequence (P01375 77-233 limits assumed): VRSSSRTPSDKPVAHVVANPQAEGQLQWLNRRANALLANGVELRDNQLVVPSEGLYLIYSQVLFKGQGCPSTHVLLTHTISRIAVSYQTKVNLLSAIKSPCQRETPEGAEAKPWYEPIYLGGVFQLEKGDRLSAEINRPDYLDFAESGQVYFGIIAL

Binder | Relative potency: EC50X/EC50TB-A, KYM-1 cells (recombinant human TNFα [1]) [ratio EC50X/EC50TB-A] | Relative potency: EC50X/EC50TB-A, L929 cells (recombinant human TNFα [1]) [ratio EC50X/EC50TB-A] | binding result (recombinant human TNFα [2]) | Kd (recombinant human TNFα [3]) [nM]
B1 | 1.5 | 1.32 | – | –
B2 | – | 1.14 | – | –
B3 | – | 1.28 | – | –
B4 | – | 2.7 | – | –
B5 | 1.6 | 1.1 | – | –
B6 | 1.3 | 0.8 | – | –
B7 | 1.5 | 1.37 | – | –
B8 | – | – | binds | –
B9 | – | – | – | ~100
